In patent US20260258115A1 (MAPP BIOPHARMACEUTICAL, published 2026):
Where a chain is given by its changes, count along the chain named.

B1: ADI-41352 (antibody, V domains shown)
VH: EVQLVESGGGLVQPGGSLRLSCAASGFTFSSYRMNWVRQAPGKGLEWVSYIDISSSTIYYADSVKGRFTISRDNAKNSLYLQMNSLRAEDTAVYYCARDQLVWEPLIRNHYYYAMDVWGQGTTVTVSS
VL: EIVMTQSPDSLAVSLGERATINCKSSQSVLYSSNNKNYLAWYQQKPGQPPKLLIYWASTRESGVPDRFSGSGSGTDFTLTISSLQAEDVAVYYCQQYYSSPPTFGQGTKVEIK
notes: IgG1
B2: ADI-41398 (antibody, V domains shown)
VH: EVQLLESGAEVKKPGASVKVSCKASGYTFTNYGISWVRQAPGQGLEWMGWISAYNGNTNYAQKLQGRVTMTTDTSTSTAYMELRSLRSDDTAVYYCARDGGVIAAATLGYWGQGTLVTVSS
VL: EIVLTQSPLSLPVTLGQPASISCRSSQSLVYSDGNTYLSWFQQRPGQSPRRLIYKISNRDSGVPNRFSGSGSGTDFTLKISRVEAEDVGIYYCMQGIYWPPTFGQGTKVEIK
notes: IgG1; also called Ab 691
B3: ADI-41434 (antibody, V domains shown)
VH: EVQLVESGGGLVQPGRSLRLSCEASGFTFDDYAMHWVRQTPGKGLEWVSGISWNSGSIVYADSVKGRFTISRDNAKNSLYLQMHSLRPEDTALYYCAKDNYTFGNYYYYYGMDVWGQGTTVTVSS
VL: EIVLTQSPVTLSVSPGERATLSCRASQNVISNLAWYQQKPGQAPRLLIYGASTRATGIPARFSGSGSGTEFTLTISSLQSEDFAVYYCQQYNNWPLSFGGGTKVEIK
notes: IgG1; also called Ab 718
B4: ADI-41442 (antibody, V domains shown)
VH: EVQLLESGGGLVQPGRSLRLSCAASGFTFDDYAMHWVRQAPGKGLEWVSGISWHSGSIVYADSVKGRFTISRDNAKNSLYLQMSSLRAEDTALYYCVKDHYNWNDNPHFHYGLDVWGQGTTVTVSS
VL: B3 VL with V9A, N28S, L47F, Y87F, L96I, S97T, G100Q, K103R, V104L
notes: IgG1; also called Ab 726
B5: ADI-41356 (antibody, V domains shown)
VH: QVQLVQSGAEVKKPGASVKVSCKASGYTFTNYDINWVRQATGQGLEWMGWMNRNNGNTGYARKFQGRVTMTRNTSISTAYMELSSLRSEDTAVYYCARGGDFYAMDVWGQGTTVTVSS
VL: SYELTQPPSVSVSPGQTASITCSGDKLGDKYASWYQQKPGQSPVLVIYQDTKRPSGVPERFSGSNSGNTATLTISGTQAVDEADYYCQVWDGSIAFGGGTKVTVL
notes: IgG1
B6: ADI-41377 (antibody, V domains shown)
VH: QVQLQQSGPGLVKPSQTLSLTCAISGDSVSSDSATWNWIRQSPSRGLEWLGRAYYRSKWYYDYAPSVKSRLTINPDTSKNQFSLQLTSVTPQDTAVYFCARDLPPLEYFDGSGYYFLDHWGQGTLVTVSS
VL: SYELTQPPSVSVAPGQTARLSCGGHNIGSKSVQWYQQKPDQAPVLVVYDDHDRPSGIPDRFSGSNSGDMATLTISRVEAGDEADYYCQVCESGRDPMVFGGGTKVTVL
notes: IgG1; also called Ab 674
B7: ADI-41401 (antibody, V domains shown)
VH: EVQLLESGGGLVHPGRSLRLSCAASGFTFGDYAMHWVRQAPGKGLEWVSGISWNSDTIEYADSVKGRFTISRDNAKNSLYLQMNSLRAEDTALYYCAKDFGSSWEAYFDYWGQGTLVTVSS
VL: DIVLTQSPSYLSASVGDRVTITCRASQSISTYLNWYQQKPGKAPKLLISAASSLQSGVTSRFSGSGSGTDFSLTISSLQPEDFATYYCQQSYSTALTFGGGTKVEIK
notes: IgG1
B8: ADI-41419 (antibody, V domains shown)
VH: EVQLVESGGGLVQPGRSLRLSCAASGFTFDDYAMHWVRQAPGKGLEWVSGISWNSGSVGYSDSVKGRFTISRDNAKSSLYLQMNNLRAEDTALYYCARDMAHTQDYFDTSEYDSWGQGTLVTVSS
VL: QPVLTQPASVSGSPGQSITISCTGTSSDIGAYNYVSWYQQHPGKAPKLVVYEVNNRPSGISNRFSGSKSGNTASLTISGLQAEDEADYYCSSYTVSATLVFGGGTKLTVL
notes: IgG1
B9: ADI-41416 (antibody, V domains shown)
VH: EVQLVESGGGLVKPGGSLRLSCAASGFKFSSYTMNWVRQAPGKGLEWVSSITGGSSFINYADSVKGRFTISRDNAKNSLYLQMVSLRAEDTAVYYCARDLSSHITIFGAVSDYWGRGTTVTVSS
VL: QSVLTQPPSVSGAPGQRVTISCTGSSSNIGAGYDAHWFQQLPGSAPKLLIYANTNRPSGVPDRFSGSKSGTSASLAITGLQAEDEADYYCQSYDSTLSVVFGGGTKLTVL
notes: IgG1
B10: ADI-41421 (antibody, V domains shown)
VH: QVQLVESAAEVKRPGASLKVSCKASGYTFIDYDISWVRQAPGQGLDWMGWISTYDGSAKYPENLQARVAMTTDTSTSTAYMELESLTSDDTAVYYCARARRGSSGWVSTTGPTPFFDYWGRGTLVTVSS
VL: SYELTQPPSVSVSPGQTARITCSGDALPKRYAYWYQQKSGQAPVLVIYEDNKRPSGIPERFSGSSSGTVATLTISGAQVEDEADYSCYSTDATGNHRGLFGGGTKLTVL
notes: IgG1
B11: ADI-41828 (antibody, V domains shown)
VH: EVQLVESGGGLVQPGGSLRLSCADSDFTFSTYSMNWVRQAPGKGLEWISYITGRSSAIYYADSVKGRFTISRDNAKNSLFLQMNSLRAEDTAVYYCTTFMAGYSFGHGDAFDIWGQGTTVTVSS
VL: SYELTQPPSVSVAPGQTARITCGGNNIGSKSVHWYQQKPGQAPVLVVYDDSDRPSGIPERFSGSNSGNTATLTISRVEAGDEADYYCQVWNSNSDHPHWVFGGGTQLTVL
B12: ADI-21089 (antibody, V domains shown)
VH: EVQLLESGGGLVKPGGSLRLSCVASGFRFTSYSMNWVRQAPGKGLEWVSSISASSSYVDYADSLKGRFTISRDNAQNSLFLQMNSLRAEDTAVYYCARDYYDSGNYHSPFPMDVWGQGTTVTVSS
VL: QSVLTQPPSVSGAPGQRVTISCTGSRSNIGAGYDVHWYQQLPGTAPKLLIYGNNKRPSGVPDRFSGSKSGTSASLAITGLQAEDEADYYCQSYDSGPIFGGGTKVTVL
B13: ADI-21082 (antibody, V domains shown)
VH: EVQLVESGGGLVKPGGSLKLSCVASGLKFSSYSMNWVRQAPGKGLEWVSSVSAGSSYTNYADSVKGRFTISRDNAKNSLYLQMNSLRVDDTAVYYCATERCSGGSCYLHGFDPWGQGTTVTVSS
VL: QSVLTQPPSVSGAPGQRVTISCTGSSSNIGAGYDVHWYQQLPGTAPKLLIFDNIIRPSGVPDRFSGSKSGTSASLAITGLQADDEADYYCQSYDKSGDYVFGTGTKVTVL
B14: ADI-21086 (antibody, V domains shown)
VH: EVQLVETGGGLVKPGGSLRLSCAASPFAFSNYYMSWIRQAPGKGLEWISNISGGSTFTNYADSVKGRFTISRDNARNSLYLLMNNLRTEDTAVYYCAREASVAAGTPEGFDVWGQGTTVTVSS
VL: QSVVTQPPSVSGAPGQRVTISCTGSSSNIGAGYDVNWYQQFPGTAPKLLIYGNRNRPSGVPARFSGSKSGASASLAITGLQAEDEADYYCHSYDSGLSGSVFGGGTKLTVL

The binders below were run against RSV prefusion F (preF), DS-Cav1 (respiratory syncytial virus, UniProt P03420 26-513) (assay: BLI, IgG on sensor, 100 nM antigen).

| Binder | Kd [nM] |
| --- | --- |
| B1 | 3.36 |
| B2 | 0.6 |
| B3 | 0.613 |
| B4 | 0.521 |
| B5 | 0.725 |
| B6 | 1.74 |
| B7 | 3.22 |
| B8 | 0.305 |
| B9 | 0.444 |
| B10 | 2.52 |

Each binder was assayed against RSV prefusion F (preF), DS-Cav1 stabilized trimer, subtype A (Respiratory Syncytial Virus, subtype A, UniProt P03420 26-513) (assay: BLI, IgG on anti-human IgG sensors, 100 nM antigen, apparent KD).

| Binder | Kd [nM] |
| --- | --- |
| B11 | 0.241 |

What follows are binders tested against RSV postfusion F (postF), F deltaFP (respiratory syncytial virus, UniProt P03420 26-513) (assay: BLI, IgG on sensor).

| Binder | binding result |
| --- | --- |
| B1 | no binding (tested: 100 nM antigen) |
| B2 | no binding (tested: 100 nM antigen) |
| B3 | no binding (tested: 100 nM antigen) |
| B4 | no binding (tested: 100 nM antigen) |
| B5 | no binding (tested: 100 nM antigen) |
| B6 | no binding (tested: 100 nM antigen) |
| B7 | no binding (tested: 100 nM antigen) |
| B8 | no binding (tested: 100 nM antigen) |
| B9 | no binding (tested: 100 nM antigen) |
| B10 | no binding (tested: 100 nM antigen) |

The binders below were run against RSV F on recombinant mKate-RSV A2 virus (Respiratory syncytial virus A2, UniProt P03420 26-574) (assay: cell-based or functional assay).

| Binder | Neut IC50 (ug/ml) subtype A [µg/mL] |
| --- | --- |
| B12 | 0.27 |
| B13 | 0.09 |
| B14 | 0.11 |

Each binder was assayed against RSV F on recombinant mKate-RSV B 18537 virus (Respiratory syncytial virus B 18537, UniProt P13843 26-574) (assay: cell-based or functional assay).

| Binder | Neut IC50 (ug/ml) subtype B [µg/mL] |
| --- | --- |
| B12 | 0.17 |
| B13 | 0.25 |
| B14 | 0.47 |

These binders were tested against RSV fusion glycoprotein (RSV F) on RSV-A2 virus (respiratory syncytial virus, UniProt P03420 26-574) (assay: cell-based or functional assay).

| Binder | Neutralization IC50 (RSV subtype A) [µg/mL] |
| --- | --- |
| B1 | > 25 |
| B2 | 0.17 |
| B3 | > 25 |
| B4 | 0.04 |
| B5 | 0.115 |
| B6 | 0.24 |
| B7 | > 25 |
| B8 | 0.01 |
| B9 | 0.05 |
| B10 | 4.78 |

The binders below were run against T1, RSV postfusion F, subtype B (postF trimer) (Respiratory syncytial virus subtype B, UniProt P13843 26-513) (assay: BLI, IgG apparent affinity).
T1 construct: also called Postfusion subtype B

| Binder | Kd [nM] | binding result |
| --- | --- | --- |
| B12 | 3.34 |  |
| B13 | 6.17 |  |
| B14 |  | no binding |

What follows are binders tested against RSV F on RSV subtype A virus (RSV-A2) (Respiratory Syncytial Virus, subtype A, …, UniProt P03420 26-574) (assay: cell-based or functional assay).

| Binder | Neutralization IC50 (RSV subtype A) [µg/mL] |
| --- | --- |
| B11 | 5.53 |
